{
  "source": "the RNAGym collection of RNA variant scans (doi:10.1093/nar/gkz1192)",
  "parents": {"B1": {"name": "CPEB3 Ribozyme (parent)", "chain": "UAACAGGGGGCCACAGCAGAAGCGUUCACGUCGCAGCCCCUGUCAGAUUCUGGUGAAUCUGCGAAUUCUGCUGUAUAUCUC"}},
  "data": [
    {"variants_of": "B1", "assay": "self-cleavage, relative activity (ratio to wild type); higher = more cleavage; in vitro, sequencing", "outline": "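After error-prone PCR and barcoding, CPEB3 ribozyme mutant libraries were transcribed with T7 RNA polymerase at 37°C for 5 hours, then given 15 min with DNase I before an EDTA stop, and they cleaved during both steps. Reverse transcription with template switching preceded Illumina sequencing. Relative activity divides a variant's cleaved/total read fraction by the unmutated ribozyme's. At least 5 reads were required per variant, and three batches were averaged.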", "values": [
      {"variant": "UAUCAGGGGGCCACAGCAGAAGCGUUCACGUCGCAGCCCCUGUCAGAUUCUGGUGAAUCUGCGAAUUCAGCUGUAUAUCUC", "self-cleavage": 0.54},
      {"variant": "UAUCAGGGGGCCACAGCAGAAGCGUUCACGUCGCAGCCCCUGUCAGAUUCUGGUGAAUCUGCGAAUUCCGCUGUAUAUCUC", "self-cleavage": 0.69},
      {"variant": "UAUCAGGGGGCCACAGCAGAAGCGUUCACGUCGCAGCCCCUGUCAGAUUCUGGUGAAUCUGCGAAUUCUGCAGUAUAUCUC", "self-cleavage": 1},
      {"variant": "UAUCAGGGGGCCACAGCAGAAGCGUUCACGUCGCAGCCCCUGUCAGAUUCUGGUGAAUCUGCGAAUUCUGCCGUAUAUCUC", "self-cleavage": 1.12},
      {"variant": "UAUCAGGGGGCCACAGCAGAAGCGUUCACGUCGCAGCCCCUGUCAGAUUCUGGUGAAUCUGCGAAUUCUGCGGUAUAUCUC", "self-cleavage": 1.09},
      {"variant": "UAUCAGGGGGCCACAGCAGAAGCGUUCACGUCGCAGCCCCUGUCAGAUUCUGGUGAAUCUGCGAAUUCUGCUGAAUAUCUC", "self-cleavage": 1.26},
      {"variant": "UAUCAGGGGGCCACAGCAGAAGCGUUCACGUCGCAGCCCCUGUCAGAUUCUGGUGAAUCUGCGAAUUCUGCUGUAGAUCUC", "self-cleavage": 1.13},
      {"variant": "UAUCAGGGGGCCACAGCAGAAGCGUUCACGUCGCAGCCCCUGUCAGAUUCUGGUGAAUCUGCGAAUUCUGCUGUAUACCUC", "self-cleavage": 0.9},
      {"variant": "UAUCAGGGGGCCACAGCAGAAGCGUUCACGUCGCAGCCCCUGUCAGAUUCUGGUGAAUCUGCGAAUUCUGCUGUAUAGCUC", "self-cleavage": 1.2},
      {"variant": "UAUCAGGGGGCCACAGCAGAAGCGUUCACGUCGCAGCCCCUGUCAGAUUCUGGUGAAUCUGCGAAUUCUGCUGUAUAUCAC", "self-cleavage": 1.23},
      {"variant": "UAUCAGGGGGCCACAGCAGAAGCGUUCACGUCGCAGCCCCUGUCAGAUUCUGGUGAAUCUGCGAAUUCUGCUGUAUAUCCC", "self-cleavage": 0.85},
      {"variant": "UAAAAGGGGGCCACAGCAGAAGCGUUCACGUCGCAGCCCCUGUCAGAUUCUGGUGAAUCUGCGAAUUCUGCUGUAUAUCUC", "self-cleavage": 1.22},
      {"variant": "UAAAAGGGGGCCACAGCGGAAGCGUUCACGUCGCAGCCCCUGUCAGAUUCUGGUGAAUCUGCGAAUUCUGCUGUAUAUCUC", "self-cleavage": 1.04},
      {"variant": "UAAAAGGGGGCCACAGCUGAAGCGUUCACGUCGCAGCCCCUGUCAGAUUCUGGUGAAUCUGCGAAUUCUGCUGUAUAUCUC", "self-cleavage": 0.45},
      {"variant": "UAAAAGGGGGCCACAGCAGGAGCGUUCACGUCGCAGCCCCUGUCAGAUUCUGGUGAAUCUGCGAAUUCUGCUGUAUAUCUC", "self-cleavage": 1.11},
      {"variant": "UAAAAGGGGGCCACAGCAGAGGCGUUCACGUCGCAGCCCCUGUCAGAUUCUGGUGAAUCUGCGAAUUCUGCUGUAUAUCUC", "self-cleavage": 0.92},
      {"variant": "UAAAAGGGGGCCACAGCAGAAGCGUUCACGUCGCAGCCCCUGUCUGAUUCUGGUGAAUCUGCGAAUUCUGCUGUAUAUCUC", "self-cleavage": 1.16},
      {"variant": "UAAAAGGGGGCCACAGCAGAAGCGUUCACGUCGCAGCCCCUGUCAGGUUCUGGUGAAUCUGCGAAUUCUGCUGUAUAUCUC", "self-cleavage": 1.12},
      {"variant": "UAAAAGGGGGCCACAGCAGAAGCGUUCACGUCGCAGCCCCUGUUAGAUUCUGGUGAAUCUGCGAAUUCUGCUGUAUAUCUC", "self-cleavage": 0.33},
      {"variant": "UAAAAGGGGGCCACAGCAGAAGCGUUCACGUCGCAGCCCCUGUCAGAUUCUGGUGAAUAUGCGAAUUCUGCUGUAUAUCUC", "self-cleavage": 0.33},
      {"variant": "UAAAAGGGGGCCACAGCAGAAGCGUUCACGUCGCAGCCCCUGUCAGAUUCUGGUGAAUCUGUGAAUUCUGCUGUAUAUCUC", "self-cleavage": 0.23},
      {"variant": "UAAAAGGGGGCCACAGCAGAAGCGUUCACGUCGCAGCCCCUGUCAGAUUCUGGUGAAUCUGCGAAUUCUGCUGUAUAUGUC", "self-cleavage": 1.25},
      {"variant": "UAAAAAGGGGCCACAGCAGAAGCGUUCACGUCGCAGCCCCUGUCAGAUUCUGGUGAAUCUGCGAAUUCUGCUGUAUAUCUC", "self-cleavage": 0.43},
      {"variant": "UAAAAGGAGGCCACAGCAGAAGCGUUCACGUCGCAGCCCCUGUCAGAUUCUGGUGAAUCUGCGAAUUCUGCUGUAUAUCUC", "self-cleavage": 0.47},
      {"variant": "UAAAAGGGAGCCACAGCAGAAGCGUUCACGUCGCAGCCCCUGUCAGAUUCUGGUGAAUCUGCGAAUUCUGCUGUAUAUCUC", "self-cleavage": 0.64},
      {"variant": "UAAAAGGGGACCACAGCAGAAGCGUUCACGUCGCAGCCCCUGUCAGAUUCUGGUGAAUCUGCGAAUUCUGCUGUAUAUCUC", "self-cleavage": 0.59},
      {"variant": "UAAAAGGGGGCCACAUCAGAAGCGUUCACGUCGCAGCCCCUGUCAGAUUCUGGUGAAUCUGCGAAUUCUGCUGUAUAUCUC", "self-cleavage": 0.62},
      {"variant": "UAAAAGGGGGCCACAGCAGAACCGUUCACGUCGCAGCCCCUGUCAGAUUCUGGUGAAUCUGCGAAUUCUGCUGUAUAUCUC", "self-cleavage": 0.25},
      {"variant": "UAAAAGGGGGCCACAGCAGAAGCGUUCACAUCGCAGCCCCUGUCAGAUUCUGGUGAAUCUGCGAAUUCUGCUGUAUAUCUC", "self-cleavage": 0.39},
      {"variant": "UAAAAGGGGGCCACAGCAGAAGCGUUCACGUCUCAGCCCCUGUCAGAUUCUGGUGAAUCUGCGAAUUCUGCUGUAUAUCUC", "self-cleavage": 0.12},
      {"variant": "UAAAAGGGGGCCACAGCAGAAGCGCUCACGUCGCAGCCCCUGUCAGAUUCUGGUGAAUCUGCGAAUUCUGCUGUAUAUCUC", "self-cleavage": 0.52},
      {"variant": "UAAAAGGGGGCCACAGCAGAAGCGUCCACGUCGCAGCCCCUGUCAGAUUCUGGUGAAUCUGCGAAUUCUGCUGUAUAUCUC", "self-cleavage": 1.21},
      {"variant": "UAAAAGGGGGCCACAGCAGAAGCGUUCACGACGCAGCCCCUGUCAGAUUCUGGUGAAUCUGCGAAUUCUGCUGUAUAUCUC", "self-cleavage": 0.88},
      {"variant": "UAAAAGGGGGCCACAGCAGAAGCGUUCACGUCGCAGCCCCAGUCAGAUUCUGGUGAAUCUGCGAAUUCUGCUGUAUAUCUC", "self-cleavage": 0.41}
    ]}
  ]
}
